Columns and labels:
ZNF827 ZnF1-9 deleted = biological target: T1, ZNF827 ZnF1-9 deleted (Homo sapiens); assay: EMSA; interaction abolished; conditions: tags: HaloTag (pHTN), expressed in HEK 293T, tag removed by HaloTEV cleavage; label: 32P (gamma)
T1 chain: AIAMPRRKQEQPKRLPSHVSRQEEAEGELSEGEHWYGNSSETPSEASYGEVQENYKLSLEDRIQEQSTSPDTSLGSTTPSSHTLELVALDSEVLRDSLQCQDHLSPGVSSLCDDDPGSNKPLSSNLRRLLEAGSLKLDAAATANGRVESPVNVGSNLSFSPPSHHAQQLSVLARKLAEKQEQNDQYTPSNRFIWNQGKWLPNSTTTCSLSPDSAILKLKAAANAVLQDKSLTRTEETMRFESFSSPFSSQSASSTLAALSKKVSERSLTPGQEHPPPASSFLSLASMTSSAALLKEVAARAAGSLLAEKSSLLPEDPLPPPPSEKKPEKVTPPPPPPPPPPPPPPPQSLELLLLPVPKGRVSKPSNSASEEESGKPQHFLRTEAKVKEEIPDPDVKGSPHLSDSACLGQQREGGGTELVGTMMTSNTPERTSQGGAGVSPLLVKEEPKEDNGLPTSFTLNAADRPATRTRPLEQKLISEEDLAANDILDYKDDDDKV
Procedure: (§1) Purified proteins were quantified using a BCA assay using the Pierce™ BCA Protein Assay Kit according to the manufacturer's instructions. Equal amounts of purified proteins were incubated in binding buffer (20 mM HEPES-KOH, pH7.9, 100 mM KCl, 0.8 mM ZnCl₂, 0.2 mM EDTA, 5% glycerol, 0.5 mM DTT and 0.5 mM PMSF) with 6.25 μg/mL poly (dI:dC) and 50 ng/μL BSA on ice for 20 minutes. ˜0.12 nM (˜2.5 fmol) γ-³²P labelled DNA oligonucleotide (see Table 3) probes were added to samples and incubated on ice for another 30 minutes. Binding reactions were loaded onto an 8% native acrylamide/bisacrylamide (19:1, Biorad) gel pre-run at 100V in 0.5× TB buffer (89 mM Tris, 89 mM boric acid) for 20 minutes. Gels were electrophoresed at 150 V for 150 minutes at 4° C., dried at 65° C. for 45 minutes, and then exposed to a Phosphor screen overnight. Gel images were obtained by scanning the screens with a Typhoon FLA9500 Imager (GE Life Sciences).

[1] = biological target: T2, ZNF827 SUMOylation mutant (Homo sapiens, UniProt Q17R98 SEQ:4-1079); assay: EMSA; positive control; 0.8 mM ZnCl2, 100 mM KCl, poly(dI:dC), on ice; conditions: tags: HaloTag (pHTN), expressed in HEK 293T, tag removed by HaloTEV cleavage; label: 32P (gamma)
T2 chain: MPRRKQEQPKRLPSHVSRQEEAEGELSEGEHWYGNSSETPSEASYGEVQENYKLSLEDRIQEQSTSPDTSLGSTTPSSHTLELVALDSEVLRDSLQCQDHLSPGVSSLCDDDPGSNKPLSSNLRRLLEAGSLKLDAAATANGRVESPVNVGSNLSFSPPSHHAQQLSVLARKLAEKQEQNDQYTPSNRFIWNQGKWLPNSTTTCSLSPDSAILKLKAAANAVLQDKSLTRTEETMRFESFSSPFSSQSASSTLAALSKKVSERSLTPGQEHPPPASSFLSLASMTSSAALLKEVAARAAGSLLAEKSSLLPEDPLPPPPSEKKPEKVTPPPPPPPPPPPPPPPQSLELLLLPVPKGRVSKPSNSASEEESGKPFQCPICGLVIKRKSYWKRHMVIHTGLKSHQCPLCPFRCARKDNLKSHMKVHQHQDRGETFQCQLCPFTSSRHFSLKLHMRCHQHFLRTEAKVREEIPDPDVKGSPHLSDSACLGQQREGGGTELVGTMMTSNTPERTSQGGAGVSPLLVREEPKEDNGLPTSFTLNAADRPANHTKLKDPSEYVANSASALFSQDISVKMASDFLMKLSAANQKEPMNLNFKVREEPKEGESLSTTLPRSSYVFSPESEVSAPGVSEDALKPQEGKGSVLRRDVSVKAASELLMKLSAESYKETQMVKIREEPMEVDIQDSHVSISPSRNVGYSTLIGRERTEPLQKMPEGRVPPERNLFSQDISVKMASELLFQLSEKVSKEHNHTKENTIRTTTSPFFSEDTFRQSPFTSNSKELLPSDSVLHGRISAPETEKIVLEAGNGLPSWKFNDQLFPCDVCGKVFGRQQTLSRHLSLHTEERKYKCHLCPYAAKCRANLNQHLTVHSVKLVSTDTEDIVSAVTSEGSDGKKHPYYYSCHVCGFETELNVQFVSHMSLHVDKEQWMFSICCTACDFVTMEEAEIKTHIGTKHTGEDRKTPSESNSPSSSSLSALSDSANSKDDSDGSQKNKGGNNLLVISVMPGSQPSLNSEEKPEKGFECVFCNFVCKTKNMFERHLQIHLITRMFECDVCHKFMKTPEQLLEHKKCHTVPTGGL
Procedure: as §1
To identify which zinc fingers are required for DNA binding activity, zinc finger mutants with either one or both zinc finger clusters deleted were also generated and purified (FIG. 1). Purified proteins were validated by HaloTag® TMR ligand detection and western blot analysis. Mass spectrometry (MS) analysis also confirmed the specificity of the HaloTag protein purification method. […]

What does the source list for TTAGGGTTAGGGTTAGGG (ssDNA) [ss telomeric G rich oligo]?
binding result (ZNF827 ZnF1-9 deleted): no binding; binding result [1]: binds
